Measured values reported in the DeepSol protein solubility set.

Test: soluble on expression in E. coli; label from the status in PepcDB or PDB records

| Sequence | soluble on expression in E. coli |
| --- | --- |
| MQKKSQTAQSYHPMIKEFPEFYGPLTCPGQFLALLILEFGLNFAEIQKLKWENFNWNFKYLTIEKAGIKRVLPIREKFAIRVKAINNADELFAKSRQFLYTELKKFTNYSSKEIREQYILHQVKAGKSIYELATLLGLTTITTLEKYYRLEHHHHHH | not soluble |
| MSLNSSEHKIRITPLGGLGEIGGNISVFETNKDAIIVDIGMSFPDGTMHGVDIIIPDFDYVRKIKDKIRGIVITHAHEDHIGAVPYFFKEFQFPIYATPLALGMISNKFEEHGLKAERKWFRPVEKRRVYEIGEFDIEWIHITHSIIDASALAIKTKAGTIIHTGDFKIDQTPIDGYPTDLGRLAYYGEEGVLCLLSDSTNSYKEGYTKSESSVGLTFDQIFARTKGRVIMSTFSSNIHRVYQAITYGLKYGRKVCVIGRSMERNLYTTMELGYIKLDRKIFIDADEVSKYKDNEVLIVTTGSQGETMSALYRMATDEHKFIKIKPTDQVIISAKAIPGNEASVSAVLDYLLKAGAKVAYQEFSEIHVSGHASIEEQKLMLTLTKPKFFLPVHGEYNHITKHKETAMKCGIPERNIYLMSDGDQVELEGHHHHHH | soluble |
| GMHHQRKTHVDNNIAAVELAKAYRLLNHGPTVLVSARSQGIDNVMAAAWCCALDFAPPKLTVVLDKMTKTREFIEQSGMFVIQVPTVAQLQLTHRVGSQSLADDANKLLNCGVELFEMAGHDLPFVAGCSAWLACKLIPEPNNQLQYDLFIAEVIGAWADTQVFNHGHWHFDTAPADKRSLHYIAGGQFYAIGESFNAD | soluble |
| MDPSSKPLREIPGSYGIPFFQPIKDRLEYFYGTGGRDEYFRSRMQKYQSTVFRANMPPGPFVSSNPKVIVLLDAKSFPILFDVSKVEKKDLFTGTYMPSTKLTGGYRVLSYLDPSEPRHAQLKNLLFFMLKNSSNRVIPQFETTYTELFEGLEAELAKNGKAAFNDVGEQAAFRFLGRAYFNSNPEETKLGTSAPTLISSWVLFNLAPTLDLGLPWFLQEPLLHTFRLPAFLIKSTYNKLYDYFQSVATPVMEQAEKLGVPKDEAVHNILFAVCFNTFGGVKILFPNTLKWIGLAGENLHTQLAEEIRGAIKSYGDGNVTLEAIEQMPLTKSVVYESLRIEPPVPPQYGKAKSNFTIESHDATFEVKKGEMLFGYQPFATKDPKVFDRPEEYVPDRFVGDGEALLKYVWWSNGPETESPTVENKQCAGKDFVVLITRLFVIELFRRYDSFEIELGESPLGAAVTLTFLKRASI | soluble |
| GYTLWNDQIVKDEEVKIDKEDRGYQFGDGVYEVVKVYNGEMFTVNEHIDRLYASAEKIRITIPYTKDKFHQLLHELVEKNELNTGHIYFQVTRGTSPRAHQFPENTVKPVIIGYTKENPRPLENLEKGVKATFVEDIRWLRCDIKSLNLLGAVLAKQEAHEKGCYEAILHRNNTVTEGSSSNVFGIKDGILYTHPANNMIAKGITRDVVIACANEINMPVKEIPFTTHEALKMDELFVTSTTSEITPVIEIDGKLIRDGKVGEWTRKLQKQFETKIPKPLHI | soluble |
| MAHHHHHHMHDRIFAFAQQKVGLTAEQAECLSRKYWLNYGLSLYGYVKEYNVDAKEYSDFVHQCSYDKLHYNKPLIDMLLIMQYAPEAARGHDGPRSTNIDHLYYFTNANHSHARNVLDAQGLRPIFTRPRPVGLPVKENHPASEQAGAEDQVEWLGFSYEDQWQLTHPEIANKPMRQAYEAIYKAIEDQVAEDAALVATTTTAGSGSAFASSSASRNSDIAEEVKNKRARLRPENFVMVDDSLMNIDAPLELGWSAVWYAHDTQELPTDVKDNASAPLYAAAVASGRLQVIRNILELRAAVERIREVNSRSASS | not soluble |
| GMKAADFTYVTVHGDNSRMSRLKAQYTMLFFYDPDCSNCRKFEKLFAEIPAFVEMVENGTLRVLAIYPDENREEWATKAVYMPQGWIVGWNKAGDIRTRQLYDIRATPTIYLLDGRKRVILKDTSMEQLIDYLATQAG | not soluble |
| MSLANGIEFNQNPASVFNSNSLDFELESQQLTQKNSSNTSSPLINLQNELAMITSSSLSETIEGLSLGYRKGSARKEEEGTTIEKLLNEMQELLTLTDSDKIKELSLKNSGLLEQHDPTLAMFGNMPKGEIVALISSLLQSKFVKIELKKKYAKLLLDLLGEDDWELALLSWLGVGELNQEGIQKIKKLYEKAKDEDSENGASLLDWFMEIKDLPEREKHLKVIIRALSFDLSYMSSFEDKVRTSSIISDLCRIIIFLSLNNYTDIIAISIKKDKDVILNEMLSIIEHVWLTEDWLLESPSRVSIVEDKHVYYFHLLKEFFASLPDACFIDNEQRSNTLLMIGKVIDYKEDVMEGHHHHHH | soluble |
| MSLRVENLRSSTYRNGPTGLPNRARFSEDLDAVLLQRTADSAATAIAVDLCGSDYFRDMVKALGWDYADGYVALAYKRLISKLPAGTALYRLDTTTFAFMVTTADPLRLSALCSKISKGFVAPLEHQGIPHTAVASIGAVLLETSYGAADTLRSLTTSVDVAREHCLTWSLYERKHDVVQRNTFRLLAALPAALASSNQLRLHYQPRVDLHDHRCVAVEALLRWQHPMIGPVMPSDFIPMAEKTALINRITAWVIDQGIAQAARWQQQGLDFNLALNVSAADLDQPGFVGLLRRGLDRHKLDPRRLEIEFTESAMIRHPEHLSEQLAAVAALGVHIAIDDFGTGYSNFSYLKQLPASSLKIDQSFVRSLPDSRTDRTLVPAMIQLGHSLGQRVVAEGIESAQAYAQLRSWGCDEGQGYWIAKPMPAAALEAWLETPWYQRATDAEGHHHHHH | soluble |
| MGKALVIVESPAKAKTINKYLGSDYVVKSSVGHIRDLPTSGSAAKKSADSTSTKTAKKPKKDERGALVNRMGVDPWHNWEAHYEVLPGKEKVVSELKQLAEKADHIYLATDLDREGEAIAWHLREVIGGDDARYSRVVFNEITKNAIRQAFNKPGELNIDRVNAQQARRFMDRVVGYMVSPLLWKKIARGLSAGRVQSVAVRLVVEREREIKAFVPEEFWEVDASTTTPSGEALALQVTHQNDKPFRPVNKEQTQAAVSLLEKARYSVLEREDKPTTSKPGAPFITSTLQQAASTRLGFGVKKTMMMAQRLYEAGYITYMRTDSTNLSQDAVNMVRGYISDNFGKKYLPESPNQYASKENSQEAHEAIRPSDVNVMAESLKDMEADAQKLYQLIWRQFVACQMTPAKYDSTTLTVGAGDFRLKARGRILRFDGWTKVMPALRKGDEDRILPAVNKGDALTLVELTPAQHFTKPPARFSEASLVKELEKRGIGRPSTYASIISTIQDRGYVRVENRRFYAEKMGEIVTDRLEENFRELMNYDFTAQMENSLDQVANHEAEWKAVLDHFFSDFTQQLDKAEKDPEEGGMRPNQMVLTSIDCPTCGRKMGIRTASTGVFLGCSGYALPPKERCKTTINLVPENEVLNVLEGEDAETNALRAKRRCPKCGTAMDSYLIDPKRKLHVCGNNPTCDGYEIEEGEFRIKGYDGPIVECEKCGSEMHLKMGRFGKYMACTNEECKNTRKILRNGEVAPPKEDPVPLPELPCEKSDAYFVLRDGAAGVFLAANTFPKSRETRAPLVEELYRFRDRLPEKLRYLADAPQQDPEGNKTMVRFSRKTKQQYVSSEKDGKATGWSAFYVDGKWVEGKK | soluble |
| MGRAAEVPGPEPGQQEQLVFGSGDAVELSCPPPGGGPMGPTVWVKDGTGLVPSERVLVGPQRLQVLNASHEDSGAYSCRQRLTQRVLCHFSVRVTDAPSSGDDEDGEDEAEDTGVDTGAPYWTRPERMDKKLLAVPAANTVRFRCPAAGNPTPSISWLKNGREFRGEHRIGGIKLRHQQWSLVMESVVPSDRGNYTCVVENKFGSIRQTYTLDVLERSPHRPILQAGLPANQTAVLGSDVEFHCKVYSDAQPHIQWLKHVEVNGSKVGPDGTPYVTVLKTAGANTTDKELEVLSLHNVTFEDAGEYTCLAGNSIGFSHHSAWLVVLPAEEELVE | soluble |
| MKYFFETRLGETRYRLADGSLLCKDVPIGRTGKQLYGADDLPKLKPDKFVEIVVTRSPEQVFHPATLASFEGMSITILHPEDENGNVRLVNPENWKVLAVGHLQNVRRGTGEQSDLMLADLIVKDESAIQLIEDGLREVSCGYDAEYEQTEPGKAEQVDITGNHVALVPKGRAGNRCAIGDRDTMANQKKNWWNRMRAAIKTGDADTMNELVESAPASVTGDEGDLPQGVNLNINLSPQQPLPDKAPEMGGDPTGDSDDDLKTLLKALLAKLERNATGDNDNKPDDNPTGDGEDDEEETTITGDSAWRAEVIVPGIDLSRKMKPTAFKREVLASADKTLVRQIVGDADIRKLPKQSVDMAFNAVSEVAKGRNTRATTGDAQRLNMGMTSIASLNKQNAEFWANRKG | not soluble |
| MENNNGFADMADYLGKLSQVDATKLSIESLTAAANFYMEKLLPNIPKSLLKKKHMVDQVKVNIKDNEVQVAFEDTAFYWRFAENGTVNQKAQHFASGTFEQNKDQIEKIMTQQILDLWKG | soluble |
| MGSDKIHHHHHHMVQSLKVILWGEEIGRLAWDARRRLSYFMYNPAFLKKGLNISPLAAPVDGARGLMPVWGEEAKIYQKLPAFLADSLPDSWGNQLFELWRQQNHLSNADITPLDKLSFIGKRGMGALEFLPEVSRERKAEKIDIKSLANLAERIFSERENARILPEESVTMQSLLTVGTSAGGRQPKAIVAINLKNGEVRSGQISGLEEFDYYLVKFGNSQYSSAELEMSYYELATMAGINMMPSKLYQVDGNNHFMTKRFDRNHGKKIHTQTLAAISPDADSYEQLITVCRKLHLPETDCYEVFRRMVFNVLANNTDDHNKNFSFVMSEDGTWRLSPAYDVTYIFDNGGFLPNEDHCMYIRAKLRNITREDVIQFAKDNGIRRPDAIIRDIVNAMKQFRTVATKYGVAEQWVGRVENTIVDRLKSWRELEEMAPEICELVINGHIIKNIRIEQAYKGNFHLLAEIDGHERKFIIGKNKEEFSLIESMGIANLSSNQLKDMVEKYFIHLKV | not soluble |
| MKRIILSIVWGLLTGWAAVPCLWAQSRTGTADREIWVKTLVRLADPVLSNLANETLKKEMPYESLAPNRQRFSYLEAVGRTVCGIAPWLELGEDDTPEGQLRKKYIELTVKGISNAVNPSSPDYLIFGEPSQPLVDAAFLAEGLLRAPKQLWGNLSPAARKQVVTELKRSRVIKPNESNWLLFASIVEAALQEFTGECDTTRLNYGVRKFRDLWYKGDAQYGDGAEFHLDYYNSFVIHPMLTDVLVVMQKHRMPESEFLNVQQKRLGRYAEQLERFISPEGTYPVIGRSIVYRTGVFHALGQAALLHLLPQQIVPAQVRCGMTKVIENQFRSAANFDTKGWLKIGFSGNQVQMSESYINTGSTYLCLTGFLPLGLPADDPFWSAPPAEWTNLKAWSGKEMPADHSLLEHHHHHH | not soluble |
| MKLSPSMLDKLLRLGYSKLFADRYFQLWGERAIRIAEAMEKPLPRCFRVNTLKISVQDLVKRLNKKGFQFKRVPWAKEGFCLTREPFSITSTPEFLTGLIYIQEASSMYPPVALDPKPGEIVADMAAAPGGKTSYLAQLMRNDGVIYAFDVDENRLRETRLNLSRLGVLNVILFHSSSLHIGELNVEFDKILLDAPCTGSGTIHKNPERKWNRTMDDIKFCQGLQMRLLEKGLEVLKPGGILVYSTCSLEPEENEFVIQWALDNFDVELLPLKYGEPALTNPFGIELSEEIKNARRLYPDVHETSGFFIAKIRKL | soluble |
| MTQSDYIESSEHIKDTQIGYCKYGHGPNYILAICGAVGCYKKDWPLKLLSHFPPDQVTIVGIDPPGYGTSRPPERKQEVQRCMKDSEYCLGLMETLKLEPFTVMGWSEGARTTVHVAAKGKEKVNRMIVMAGATKVNHLGAMAFKGMRETNHWLAAGRQPYLDHYSPETLRTQWAALCDVVDQVHSFCGGRFPCDLVLPQVKCPTLVMNGGLDRFCGDPNVCFIPVLKSLAKVEIHAQGGHDFYLKYPKWFSGKVLEFLKSTEKK | not soluble |
